According to patent US20260001953A1:

Biological target: Sialic acid-binding immunoglobulin-like lectin 8 (SIGLEC-8), antigen of the Carterra SPR studies (UniProt Q9NYZ4)
Experiment: SPR cross-reactivity table

Sequence of Sialic acid-binding immunoglobulin-like lectin 8 (SIGLEC-8), antigen of the Carterra SPR studies (Q9NYZ4 17-363 limits assumed): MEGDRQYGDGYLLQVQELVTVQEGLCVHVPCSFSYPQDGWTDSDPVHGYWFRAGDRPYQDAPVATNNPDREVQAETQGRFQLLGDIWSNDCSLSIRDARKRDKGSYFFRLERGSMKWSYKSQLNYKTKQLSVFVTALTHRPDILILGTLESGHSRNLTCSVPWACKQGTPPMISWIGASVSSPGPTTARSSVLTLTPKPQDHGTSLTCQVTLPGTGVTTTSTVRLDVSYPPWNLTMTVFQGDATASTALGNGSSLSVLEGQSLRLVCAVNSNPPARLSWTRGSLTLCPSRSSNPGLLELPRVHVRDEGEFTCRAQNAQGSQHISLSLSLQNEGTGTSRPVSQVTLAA

Substance: Control (antibody)
- Kd: 0.031 nM
